Values belong to the molecule of their own block, whether it stands above or below them.
How the values were obtained:
[1] = molecular target: human cancer-specific MUC1; test: Example 6-1: ELISA binding activity of anti-human MUC1 antibody Fab^5 fragment conjugates; details: immobilized human cancer-specific MUC1 peptide, single runs of P10-2, read-out: EC50 value (nM) for each of 3 runs
[2] = molecular target: human cancer-specific MUC1; test: Example 6-2: ELISA binding activity of anti-human MUC1 antibody Fab^5 fragment conjugates; details: immobilized human cancer-specific MUC1 peptide, single runs of P10-2, read-out: EC50 value (nM) for each of 3 runs
Experimental: Each anti-human MUC1 antibody Fab^5 fragment conjugate prepared by the method of Example 5 was subjected to ELISA to evaluate the binding activity thereof to human cancer-specific MUC1. In the present test, 20×PBS/Tween 20 Buffer (Thermo Fisher Scientific Inc., 28352) diluted 20-fold with distilled water was used as a wash liquid. In addition, for bovine serum albumin (BSA) used in the present test, 30% Bovine Serum Albumin solution (Sigma-Aldrich, Inc., A9576-50ML) was added in an appropriate proportion for use. A human cancer-specific MUC1 peptide (PTL 1) at 0.5 μmol/L was added to a Nunc MaxiSorp White 384 plate (Nunc, 460372) at 30 μL per well, and the plate was incubated overnight at 4° C. for immobilization. The MUC1 peptide was removed by reverse centrifugation, and then blocking was carried out by adding a PBS/Tween 20 buffer containing 5.0% BSA. […] The substrate was incubated at room temperature for 15 minutes, and then a signal value thereof was measured using an Envision counter (PerkinElmer, Inc.).
The test for each antibody was carried out in duplicate, and the EC50 value was calculated using a 4-parameter logistic curve model.

[3] = test system: human breast cancer cell line MDA-MB-468; test: Example 8: amount of tumor accumulation of Gd-labeled conjugates (tumor-bearing mice); details: MDA-MB-468 tumor-bearing mice, 24 hours; control conjugate Ex-No. 108, mean of 2 runs
Experimental: (§1) A Gd-labeled conjugate of the conjugate containing a peptide linker produced in one of the above Examples was administered from the tail vein of the tumor-bearing mice so that the protein mass was 0.02 mg (100 μL) per animal. As the tumor-bearing mice used in the present Example, mice (BALB/c nu/nu) that were in a tumor-bearing state brought about by transplanting human breast cancer cell line MDA-MB-468 (ATCC(registered trademark); HTB-132) at 5.0×10^6 cells/mouse subcutaneously on the back before administration of the sample were used. 24 hours after administration of the sample, the mice were sacrificed, the kidneys and the tumor were removed, and the amounts of Gd in the kidneys and in the tumor were measured using ICP-MS. The present test was carried out in 3 cases in each group, and the mean value of the 3 cases was calculated. The amount of Gd contained per kidney after administration was shown as a percentage of the amount of Gd administered (% of dose/tissue), and the amount of Gd contained per g of tumor tissue was shown as a percentage of the total amount of Gd administered (% of dose/g).

[4] = set-up: species or system mice (BALB/c nu/nu); details: mouse, in vivo
Experimental: as §1

[5] = set-up: species or system mice (BALB/c or BALB/c nu/nu); details: mouse, in vivo
Experimental: A Gd-labeled conjugate of the conjugate containing a peptide linker produced in one of the above Examples was administered from the tail vein of mice (BALB/c or BALB/c nu/nu) so that the protein mass was 0.02 mg (100 μL) per animal. After about 24 hours, the mice were sacrificed and the kidneys were removed, and the amount of Gd in the kidneys was measured using ICP-MS. The present test was carried out in 3 cases in each group, the mean value of the 3 cases was calculated, and the amount of Gd contained per kidney after administration was shown as a percentage (% of dose/tissue) of the total amount of Gd administered.
Based on the amount of Gd contained in the kidneys of the control conjugate, the proportion of decrease in the amount of Gd contained in the kidneys of each of the conjugates having a peptide linker was determined.

Sequence of human cancer-specific MUC1 (P15941 136-155 limits assumed): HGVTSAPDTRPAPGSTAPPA

EC50 [1]: 0.06 nM | EC50 [2]: 0.06 nM
B1: P10-2: anti-human MUC1 antibody Fab fragment disclosed in International Publication WO2018/092885 (antibody)
heavy: QVQLVQSGAEVKKPGASVKVSCKASGYTFTNYGLSWVRQAPGQGLEWMGENHPGSGIIYHNEKFRGRVTLTADRSTSTAYMELSSLRSEDTAVYYCARSSGTRGFDYWGQGTLVTVSSASTKGPSVFPLAPSSKSTSGGTAALGCLVKDYFPEPVTVSWNSGALTSGVHTFPAVLQSSGLYSLSSVVTVPSSSLGTQTYICNVNHKPSNTKVDKKVEPKSCD
light: DVVMTQTPLSLSVTPGQPASISCRSSQSIVHSNGNTYLEWYLQKPGQSPQLLIYRVSNRFSGVPDRFSGSGSGTDFTLKISRVEAEDVGVYYCFQGSHGPWTFGQGTKLEIKRTVAAPSVFIFPPSDEQLKSGTASVVCLLNNFYPREAKVQWKVDNALQSGNSQESVTEQDSKDSTYSLSSTLTLSKADYEKHKVYACEVTHQGLSSPVTKSFNRGEC

B2: Ex-No 108 (conjugate)
heavy: B1 heavy
light: B1 light
Amount of tumor accumulation (% of dose/g), Mean [3]: 0.92 % of dose/g | Renal residual amount (% of dose/tissue), Mean [4]: 34.67 % of dose/tissue | Renal residual amount (normal mice), Mean (% of dose/tissue) [5]: 33.00 % of dose/tissue

Reference: patent publication US20220105194A1, “CONJUGATE COMPRISING LIGAND, SPACER, PEPTIDE LINKER, AND BIOMOLECULE” (ASTELLAS PHARMA INC., priority 2019, published 2022)
